Experiment [1] addresses MacQ heterodimer consisting of an α-chain and a β-chain (wild-type, cleaved form) (Acidovorax sp. strain MR-S7). Nature of the experiment: crystal structure; wild-type MacQ, ligand-free and with the reaction products C10 and PAA; crystals at 20 °C from 100 mM Tris-HCl pH 7.5–8.5, 0.1–0.2 M calcium acetate, 14–18% PEG 3350.
For experiment [2] the target is unchanged. Nature of the experiment: SEC; analytical gel filtration, Superose 6 10/300 GL, 50 mM sodium phosphate pH 8.0, 200 mM NaCl, 0.4 mL/min. (In general: SEC sorts molecules by how far they enter the pores of the column.)

A word on the stoichiometry N: it is a count of units in the complex or per binding partner. For “MacQ heterodimer consisting of an α-chain and a β-chain (wild-type, cleaved form) (complex)”, the stoichiometry N in experiment [1] and in experiment [2] was 2 each time.

Values taken from article PMC5566955.
